Assay results: article PMC2670943 (Journal of molecular biology, 2009)
Like-named read-outs stand apart in the source and are kept apart here. Each block holds one binder with its values, some of them ahead of it.

Legend:
crystal structure [1] = molecular target: the molecule itself; test: crystal structure
crystal structure [2] = molecular target: the molecule itself; test: crystal structure; remark: listed apart in the source
[3] = molecular target: T1, human GRASP55 N-terminal domain (residues 1–263) (human, UniProt Q9H8Y8-1 1-263); test: SPR
[4] = molecular target: T2, human GRASP55 full length (residues 1–452) (human, UniProt Q9H8Y8-1 1-452); test: SPR
[5] = molecular target: T1, human GRASP55 N-terminal domain …; test: AUC
[6] = molecular target: T2, human GRASP55 full length (residues …); test: AUC
crystal structure [7] = molecular target: the molecule itself; test: crystal structure; remark: listed apart in the source

B1: human KCTD5 N-module (residues 40–145) (domain or fragment)
chain: not shown
stoichiometry N (crystal structure [1]): 5 subunits

B2: human KCTD5 residues 34–234, seleno-methionine labeled (domain or fragment, UniProt Q9NXV2 34-234, looked up)
chain: ALAQRPGSVSKWVRLNVGGTYFLTTRQTLCRDPKSFLYRLCQADPDLDSDKDETGAYLIDRDPTYFGPVLNYLRHGKLVINKDLAEEGVLEEAEFYNITSLIKLVKDKIRERDSKTSQVPVKHVYRVLQCQEEELTQMVSTMSDGWKFEQLVSIGSSYNYGNEDQAEFLCVVSKELHNTPYGTASEPSEKAKILQERGSRM
modifications: seleno-methionine labeled (two seleno-methionine residues, M171 and M175, in the C-terminal domain)
stoichiometry N (crystal structure [2]): 5 subunits

koff [3]: 0.00223 s⁻¹ | kon [3]: 2590 M⁻¹ s⁻¹ | koff [4]: 0.00103 s⁻¹ | kon [4]: 870 M⁻¹ s⁻¹ | Kd [5]: 8.26 ± 1.6 µM | Kd [6]: 1.41 ± 0.26 µM
B3: human KCTD5 residues 34–234 ("full length" construct for structural and binding analysis), native (domain or fragment, UniProt Q9NXV2 34-234, looked up)
chain: ALAQRPGSVSKWVRLNVGGTYFLTTRQTLCRDPKSFLYRLCQADPDLDSDKDETGAYLIDRDPTYFGPVLNYLRHGKLVINKDLAEEGVLEEAEFYNITSLIKLVKDKIRERDSKTSQVPVKHVYRVLQCQEEELTQMVSTMSDGWKFEQLVSIGSSYNYGNEDQAEFLCVVSKELHNTPYGTASEPSEKAKILQERGSRM
stoichiometry N (crystal structure [7]): 5 subunits
